Where two headings read alike, the source gives them in different places.
How the values were obtained:
[1] = molecular target: the antigen (SARS-CoV-2 spike (S) protein, form not stated in Example 13) (SARS-CoV-2) (UniProt P0DTC2); assay: SPR relative binding activity; undiluted 50 mg/mL, formulation F8, nebulized
[2] = molecular target: the antigen (SARS-CoV-2 spike (S) protein, form not stated in Example 13) (SARS-CoV-2) (UniProt P0DTC2); assay: SPR relative binding activity; undiluted 50 mg/mL, formulation F6, initial
[3] = molecular target: the antigen (SARS-CoV-2 spike (S) protein, form not stated in Example 13) (SARS-CoV-2) (UniProt P0DTC2); assay: SPR relative binding activity; formulation F5, control unnebulized
[4] = molecular target: the antigen (SARS-CoV-2 spike (S) protein, form not stated in Example 13) (SARS-CoV-2) (UniProt P0DTC2); assay: SPR relative binding activity; undiluted 50 mg/mL, formulation F5, initial
[5] = molecular target: the antigen (SARS-CoV-2 spike (S) protein, form not stated in Example 13) (SARS-CoV-2) (UniProt P0DTC2); assay: SPR relative binding activity; 1:5 diluted 10 mg/mL, formulation F6, nebulized
[6] = molecular target: the antigen (SARS-CoV-2 spike (S) protein, form not stated in Example 13) (SARS-CoV-2) (UniProt P0DTC2); assay: SPR relative binding activity; undiluted 50 mg/mL, formulation F7, initial
[7] = molecular target: the antigen (SARS-CoV-2 spike (S) protein, form not stated in Example 13) (SARS-CoV-2) (UniProt P0DTC2); assay: SPR relative binding activity; 1:5 diluted 10 mg/mL, formulation F7, nebulized
[8] = molecular target: the antigen (SARS-CoV-2 spike (S) protein, form not stated in Example 13) (SARS-CoV-2) (UniProt P0DTC2); assay: SPR relative binding activity; formulation F5, nebulized with Droh
[9] = molecular target: the antigen (SARS-CoV-2 spike (S) protein, form not stated in Example 13) (SARS-CoV-2) (UniProt P0DTC2); assay: SPR relative binding activity; 1:5 diluted 10 mg/mL, formulation F6, initial
[10] = molecular target: the antigen (SARS-CoV-2 spike (S) protein, form not stated in Example 13) (SARS-CoV-2) (UniProt P0DTC2); assay: SPR relative binding activity; undiluted 50 mg/mL, formulation F6, nebulized
[11] = molecular target: the antigen (SARS-CoV-2 spike (S) protein, form not stated in Example 13) (SARS-CoV-2) (UniProt P0DTC2); assay: SPR relative binding activity; formulation F5, nebulized with eFlow-Rapid
[12] = molecular target: the antigen (SARS-CoV-2 spike (S) protein, form not stated in Example 13) (SARS-CoV-2) (UniProt P0DTC2); assay: SPR relative binding activity; undiluted 50 mg/mL, formulation F8, initial
[13] = molecular target: the antigen (SARS-CoV-2 spike (S) protein, form not stated in Example 13) (SARS-CoV-2) (UniProt P0DTC2)
[14] = molecular target: the antigen (SARS-CoV-2 spike (S) protein, form not stated in Example 13) (SARS-CoV-2) (UniProt P0DTC2); assay: SPR relative binding activity; reference standard, initial
[15] = molecular target: the antigen (SARS-CoV-2 spike (S) protein, form not stated in Example 13) (SARS-CoV-2) (UniProt P0DTC2); assay: SPR relative binding activity; 1:5 diluted 10 mg/mL, formulation F8, initial
[16] = molecular target: the antigen (SARS-CoV-2 spike (S) protein, form not stated in Example 13) (SARS-CoV-2) (UniProt P0DTC2); assay: SPR relative binding activity; undiluted 50 mg/mL, formulation F7, nebulized
[17] = molecular target: the antigen (SARS-CoV-2 spike (S) protein, form not stated in Example 13) (SARS-CoV-2) (UniProt P0DTC2); assay: SPR relative binding activity; formulation F5, nebulized with Pariboy
[18] = molecular target: the antigen (SARS-CoV-2 spike (S) protein, form not stated in Example 13) (SARS-CoV-2) (UniProt P0DTC2); assay: SPR relative binding activity; undiluted 50 mg/mL, formulation F5, nebulized
[19] = molecular target: the antigen (SARS-CoV-2 spike (S) protein, form not stated in Example 13) (SARS-CoV-2) (UniProt P0DTC2); assay: SPR relative binding activity; 1:5 diluted 10 mg/mL, formulation F7, initial
[20] = molecular target: the antigen (SARS-CoV-2 spike (S) protein, form not stated in Example 13) (SARS-CoV-2) (UniProt P0DTC2); assay: SPR relative binding activity; 1:5 diluted 10 mg/mL, formulation F8, nebulized
[21] = molecular target: the antigen (SARS-CoV-2 spike (S) protein, form not stated in Example 13) (SARS-CoV-2) (UniProt P0DTC2); assay: SPR relative binding activity; formulation F5, nebulized with Aerogen Solo
[22] = molecular target: the antigen (SARS-CoV-2 spike (S) protein, form not stated in Example 13) (SARS-CoV-2) (UniProt P0DTC2); assay: SPR relative binding activity; 1:5 diluted 10 mg/mL, formulation F5, nebulized
[23] = molecular target: the antigen (SARS-CoV-2 spike (S) protein, form not stated in Example 13) (SARS-CoV-2) (UniProt P0DTC2); assay: SPR relative binding activity; 1:5 diluted 10 mg/mL, formulation F5, initial

DZIF-10c (antibody), sequence (VH): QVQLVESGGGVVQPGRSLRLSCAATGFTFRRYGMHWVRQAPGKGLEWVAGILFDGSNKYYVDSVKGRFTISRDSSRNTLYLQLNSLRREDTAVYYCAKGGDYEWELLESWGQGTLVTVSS
DZIF-10c (antibody), sequence (VL): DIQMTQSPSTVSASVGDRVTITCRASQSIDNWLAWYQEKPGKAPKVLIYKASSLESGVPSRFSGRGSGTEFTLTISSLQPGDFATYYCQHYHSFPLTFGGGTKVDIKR

Substance: DZIF-10c (antibody)
- SPR Binding Activity (RLCA %) [1]: 96%
- SPR Binding Activity (RLCA %) [2]: 95%
- SPR Binding Activity (RLCA %) [3]: 100%
- SPR Binding Activity (RLCA %) [4]: 96%
- SPR Binding Activity (RLCA %) [5]: 96%
- SPR Binding Activity (RLCA %) [6]: 96%
- SPR Binding Activity (RLCA %) [7]: 96%
- SPR Binding Activity (RLCA %) [8]: 100%
- SPR Binding Activity (RLCA %) [9]: 96%
- SPR Binding Activity (RLCA %) [10]: 96%
- SPR Binding Activity (RLCA %) [11]: 100%
- SPR Binding Activity (RLCA %) [12]: 96%
- SPR Binding Activity (RLCA %) [13]: 100%
- SPR Binding Activity (RLCA %) [14]: 100%
- SPR Binding Activity (RLCA %) [15]: 96%
- SPR Binding Activity (RLCA %) [16]: 96%
- SPR Binding Activity (RLCA %) [17]: 100%
- SPR Binding Activity (RLCA %) [18]: 96%
- SPR Binding Activity (RLCA %) [19]: 96%
- SPR Binding Activity (RLCA %) [20]: 96%
- SPR Binding Activity (RLCA %) [21]: 100%
- SPR Binding Activity (RLCA %) [22]: 96%
- SPR Binding Activity (RLCA %) [23]: 96%

Reference: US20210371503A1
